According to patent US20090317414A1, “CANCER VACCINE COMPRISING A MUCIN 1 (MUC1) T CELL EPITOPE-DERIVED PEPTIDE” (4G VACCINES PTY LTD, priority 2006, published 2009):

Legend:
[1] = target: T1, soluble H-2K^b (soluble extracellular domains; heavy chain residues 1-274 with C-terminal His-tag and β2-microglobulin residues 1-99) (mouse); assay: inhibition assay with soluble H-2K^b, 37° C.
T1 chain: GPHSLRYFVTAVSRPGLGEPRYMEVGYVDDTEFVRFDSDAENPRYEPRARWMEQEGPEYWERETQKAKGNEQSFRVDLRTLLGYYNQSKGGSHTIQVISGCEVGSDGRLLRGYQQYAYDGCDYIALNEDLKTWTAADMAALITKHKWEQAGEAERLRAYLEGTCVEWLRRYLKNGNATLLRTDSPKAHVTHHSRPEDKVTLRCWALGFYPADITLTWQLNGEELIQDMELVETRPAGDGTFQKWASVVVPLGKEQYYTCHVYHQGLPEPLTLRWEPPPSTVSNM

[2] = target: T1, soluble H-2K^b (soluble extracellular …); assay: inhibition assay with soluble H-2K^b, 4° C.
[3] = target: T1, soluble H-2K^b (soluble extracellular …); assay: inhibition assay with soluble H-2K^b, 23° C.

Q: How did the Kd [1] turn out when RGYVYQGL (modifications not checked) [VSV8 (RGYVYQGL), Vesicular stomatitis virus NP52-59] was run?
A: Its Kd is 163 nM.

Q: And the Kd [2]?
A: Its Kd is 34 nM.

Q: What about the Kd [3] of the same binder?
A: Its Kd is 27 nM.
